FireProtDB (doi:10.1073/pnas.0911904107)

Conditions: Escherichia coli (strain K12), pH 8, 25 °C, Urea, CD, whole UniProt chain shown
[1] = Sodium phosphate 50 mM, reversible: Yes
[2] = sodium phosphate buffer, transition: 2, reversible: yes

B1: Lipid A palmitoyltransferase PagP wild type, P37001 (protein)
chain: MNVSKYVAIFSFVFIQLISVGKVFANADEWMTTFRENIAQTWQQPEHYDLYIPAITWHARFAYDKEKTDRYNERPWGGGFGLSRWDEKGNWHGLYAMAFKDSWNKWEPIAGYGWESTWRPLADENFHLGLGFTAGVTARDNWNYIPLPVLLPLASVGYGPVTFQMTYIPGTYNNGNVYFAWMRFQF
In the case of B1, the denaturant m value [1] is reported as 1.64 kcal/mol/M, the “denaturant midpoint (higher = more stable)” value [1] is reported as 8.77 M and the unfolding free energy [1] is reported as 14.4 kcal/mol. The “denaturant midpoint (higher = more stable)” value [2] was 8.77 M and the unfolding free energy [2] was 14.4 kcal/mol.
